This passage reports remaining activity results from PMC8307404, “Crystal Structure-Guided Design of Bisubstrate Inhibitors and Photoluminescent Probes for Protein Kinases of the PIM Family” (Molecules, 2021).

Common to all, as to test: Kinase profiling (radiometric filter-binding)
What all share (format): biochemical

Series [1] addresses YES1 (Homo sapiens, UniProt P07947). Conditions: YES1, 1 µM inhibitor; read-out: Residual activity, %. How it is done: (§1) Kinase selectivity profiling was performed using the commercial service provided by the MRC PPU International Centre for Kinase Profiling (Dundee, UK) using a radiometric filter-binding assay. Kinases used for analysis were of human origin. The ATP concentration applied for inhibition measurements was at or below the ATP KM value of the particular PK. ARC-3125 and ARC-3126 were screened against 139 PKs, whereas compounds 1, 2, and 8 were screened against 140 PKs. The final total concentration of inhibitors in the selectivity panel was 1 µM. Residual activities were expressed as the percentage of retained activity compared to the control without inhibitor.

Series [2] addresses T1, ULK1 (Homo sapiens, UniProt O75385).
T1 sequence (O75385 1-1050): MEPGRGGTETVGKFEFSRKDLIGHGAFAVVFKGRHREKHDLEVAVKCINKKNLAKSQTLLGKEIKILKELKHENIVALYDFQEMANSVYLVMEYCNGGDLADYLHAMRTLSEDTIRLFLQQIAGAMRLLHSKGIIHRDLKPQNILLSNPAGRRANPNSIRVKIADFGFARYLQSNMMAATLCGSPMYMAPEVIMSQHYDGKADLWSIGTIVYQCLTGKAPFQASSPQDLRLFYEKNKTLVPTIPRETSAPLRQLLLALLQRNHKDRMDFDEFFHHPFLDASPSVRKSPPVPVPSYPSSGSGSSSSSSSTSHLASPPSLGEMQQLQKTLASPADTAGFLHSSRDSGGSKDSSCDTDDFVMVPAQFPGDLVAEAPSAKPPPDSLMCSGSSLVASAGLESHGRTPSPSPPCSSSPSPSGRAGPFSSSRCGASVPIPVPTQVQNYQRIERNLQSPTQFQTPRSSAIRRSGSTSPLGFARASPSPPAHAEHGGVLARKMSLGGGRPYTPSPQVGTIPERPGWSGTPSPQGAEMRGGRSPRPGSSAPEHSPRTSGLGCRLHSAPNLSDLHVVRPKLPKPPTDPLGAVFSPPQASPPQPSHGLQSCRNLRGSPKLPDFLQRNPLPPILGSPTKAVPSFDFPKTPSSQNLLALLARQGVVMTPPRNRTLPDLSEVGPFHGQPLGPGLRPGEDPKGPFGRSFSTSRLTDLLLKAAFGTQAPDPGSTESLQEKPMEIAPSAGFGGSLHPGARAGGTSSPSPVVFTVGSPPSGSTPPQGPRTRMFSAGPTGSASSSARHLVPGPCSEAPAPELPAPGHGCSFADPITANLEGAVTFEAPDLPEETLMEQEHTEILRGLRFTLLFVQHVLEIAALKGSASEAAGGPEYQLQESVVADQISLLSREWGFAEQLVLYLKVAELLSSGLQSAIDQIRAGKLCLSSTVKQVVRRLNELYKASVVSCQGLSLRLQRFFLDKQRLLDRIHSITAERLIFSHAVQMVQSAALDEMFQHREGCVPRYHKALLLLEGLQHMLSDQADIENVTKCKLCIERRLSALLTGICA
Conditions: ULK1, 1 µM inhibitor; read-out: Residual activity, %. As to the method: as §1

For series [3], the target named is T2, VEG-FR (Homo sapiens, UniProt P17948).
T2 sequence (P17948 784-1338 limits assumed): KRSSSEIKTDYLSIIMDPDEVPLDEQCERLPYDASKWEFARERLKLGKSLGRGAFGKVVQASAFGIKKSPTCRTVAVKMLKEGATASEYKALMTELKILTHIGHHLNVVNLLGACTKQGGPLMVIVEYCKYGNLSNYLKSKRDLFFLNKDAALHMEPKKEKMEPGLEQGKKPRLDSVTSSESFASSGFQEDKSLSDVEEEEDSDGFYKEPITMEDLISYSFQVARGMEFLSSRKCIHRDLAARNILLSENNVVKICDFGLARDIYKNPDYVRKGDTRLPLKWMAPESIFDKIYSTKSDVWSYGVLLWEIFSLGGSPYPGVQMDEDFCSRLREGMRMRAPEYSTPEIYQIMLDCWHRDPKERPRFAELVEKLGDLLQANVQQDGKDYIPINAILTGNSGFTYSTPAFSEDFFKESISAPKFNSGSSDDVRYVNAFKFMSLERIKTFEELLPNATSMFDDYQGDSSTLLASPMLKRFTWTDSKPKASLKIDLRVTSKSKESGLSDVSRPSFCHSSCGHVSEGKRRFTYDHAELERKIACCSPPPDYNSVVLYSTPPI
Conditions: 1 µM inhibitor, read-out: Residual activity, %. How it is done: as §1

For series [4], the target named is MNK1 (Homo sapiens, UniProt Q9BUB5). The following applies: MNK1, 1 µM inhibitor; read-out: Residual activity, %. How it is done: as §1
The target of series [5] is CDK2-Cyclin A (Homo sapiens, UniProt P24941). Conditions: 1 µM inhibitor, read-out: Residual activity, %. How it is done:
as §1

Series [6] has as its target PKA (Homo sapiens, UniProt P17612). Conditions: 1 µM inhibitor, read-out: Residual activity, %. How it is done: as §1

The structures appear in SMILES notation. Square brackets hold non-standard residues; d marks the D form. Peptide text beside a SMILES is read from it. * marks the point of attachment. X3 = O=C(CCCCCNCc1nc2c(sc3cc(Br)cnc32)c(=O)[nH]1)*

Sequence of YES1 (P07947 whole entry): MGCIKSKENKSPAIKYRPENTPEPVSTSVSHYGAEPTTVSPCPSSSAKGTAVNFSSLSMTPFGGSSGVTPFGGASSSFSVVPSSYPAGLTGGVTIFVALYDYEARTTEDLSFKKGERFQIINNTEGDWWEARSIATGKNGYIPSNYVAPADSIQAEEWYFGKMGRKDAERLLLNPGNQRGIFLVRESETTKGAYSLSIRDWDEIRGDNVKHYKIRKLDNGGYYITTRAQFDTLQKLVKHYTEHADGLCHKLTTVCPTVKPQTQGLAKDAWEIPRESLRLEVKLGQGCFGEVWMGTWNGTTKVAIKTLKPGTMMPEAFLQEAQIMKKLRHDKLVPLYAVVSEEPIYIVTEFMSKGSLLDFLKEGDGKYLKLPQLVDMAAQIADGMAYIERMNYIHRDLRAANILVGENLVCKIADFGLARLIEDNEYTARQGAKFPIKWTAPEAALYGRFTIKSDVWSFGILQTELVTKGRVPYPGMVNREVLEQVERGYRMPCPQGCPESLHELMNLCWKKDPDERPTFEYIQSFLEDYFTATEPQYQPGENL
Sequence of MNK1 (Q9BUB5 whole entry): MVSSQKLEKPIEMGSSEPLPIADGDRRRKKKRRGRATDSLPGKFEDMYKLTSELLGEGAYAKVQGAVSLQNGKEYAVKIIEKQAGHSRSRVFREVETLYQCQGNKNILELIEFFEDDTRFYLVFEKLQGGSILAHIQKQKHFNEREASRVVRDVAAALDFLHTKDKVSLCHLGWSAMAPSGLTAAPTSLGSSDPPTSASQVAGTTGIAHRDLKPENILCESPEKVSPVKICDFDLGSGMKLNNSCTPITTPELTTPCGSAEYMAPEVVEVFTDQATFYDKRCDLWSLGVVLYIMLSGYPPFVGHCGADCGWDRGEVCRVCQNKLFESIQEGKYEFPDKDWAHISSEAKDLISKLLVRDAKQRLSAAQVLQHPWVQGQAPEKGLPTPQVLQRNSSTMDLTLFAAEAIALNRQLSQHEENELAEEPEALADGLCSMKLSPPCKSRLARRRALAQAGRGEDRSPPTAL

For the molecule `N=C(N)NCCC[C@@H](NC(=O)CCCCCNC(=O)Cn1cnc2c(I)c(I)c(I)c(I)c21)C(=O)N[C@H](CCCNC(=N)N)C(=O)N[C@H](CCCNC(=N)N)C(=O)N[C@H](CCCNC(=N)N)C(=O)N[C@H](CCCNC(=N)N)C(=O)N[C@H](CCCNC(=N)N)C(=O)N[C@H](CCCCN)C(N)=O` [ARC-3125, TIBI-CH2-C(=O)-Ahx-(D-Arg)6-D-Lys-NH2], the remaining activity at 1 µM is 104 ± 8% in series [1]; 89 ± 9% in series [2]; 95 ± 41% in series [3]; 67 ± 4% in series [4]; 17 ± 1% in series [5]; 7 ± 3% in series [6].

As for `N=C(N)NCCC[C@@H](NC(=O)CCCCCNCc1nc2c(sc3cc(Br)cnc32)c(=O)[nH]1)C(=O)N[C@H](CCCNC(=N)N)C(=O)N[C@H](CCCNC(=N)N)C(=O)N[C@H](CCCNC(=N)N)C(=O)N[C@H](CCCNC(=N)N)C(=O)N[C@H](CCCNC(=N)N)C(=O)N[C@H](CCCCN)C(N)=O` [ARC-3126, BPTP-Ahx-(D-Arg)6-D-Lys-NH2] (X3-[dR][dR][dR][dR][dR][dR][dK]-NH2), the remaining activity at 1 µM in series [1] was found to be 98 ± 12%; in series [2] it was 119 ± 6%; in series [3] it was 85%; in series [4] it was 89 ± 5%; in series [5], 106 ± 5%; in series [6], 97%.

Consider `N=C(N)NCCC[C@@H](NC(=O)CNC(=O)[C@@H](CCCNC(=N)N)NC(=O)[C@@H](CCCNC(=N)N)NC(=O)CCCCCCCNCc1nc2c(sc3cc(Br)cnc32)c(=O)[nH]1)C(=O)N[C@H](CCCCN)C(N)=O` [Compound 1, BPTP-Aoc-(D-Arg)2-Gly-D-Arg-D-Lys-NH2], for which the remaining activity at 1 µM was 110% in series [1]; 107 ± 5% in series [2]; 110 ± 9% in series [3]; 102 ± 3% in series [4]; 106 ± 12% in series [5]; 100 ± 9% in series [6].

With `N=C(N)NCCC[C@@H](NC(=O)CNC(=O)[C@@H](CCCNC(=N)N)NC(=O)[C@@H](CCCNC(=N)N)NC(=O)CCCCCCCNCc1nc2c(sc3ccc(Br)cc32)c(=O)[nH]1)C(=O)N[C@H](CCCCN)C(N)=O` [Compound 2, BBTP-Aoc-(D-Arg)2-Gly-D-Arg-D-Lys-NH2], the remaining activity at 1 µM in series [1] was 104 ± 12%; in series [2] it was 99 ± 6%; in series [3], 96 ± 3%; in series [4], 66 ± 7%; in series [5] it was 105 ± 9%; in series [6] it was 85 ± 6%.

On to `N=C(N)NCCC[C@@H](NC(=O)CNC(=O)[C@@H](CCCNC(=N)N)NC(=O)[C@@H](CCCNC(=N)N)NC(=O)Cn1cc(CNCc2nc3c(sc4ccc(Br)cc43)c(=O)[nH]2)nn1)C(=O)N[C@H](CCCCN)C(N)=O` [Compound 3, BBTP-Amt-(D-Arg)2-Gly-D-Arg-D-Lys-NH2], for which the remaining activity at 1 µM in series [1] stood at 124 ± 1%; in series [2] it was 108 ± 11%; in series [3] it was 90 ± 5%; in series [4] it was 89 ± 8%; in series [5], 100%; in series [6] it was 82 ± 10%.
